Experimental data from article PMC2819628 (The Biochemical journal, 2010).

Molecular target: T1, Isu1, mature form (amino acids 35-165) (yeast, UniProt Q03020 35-165)
T1 sequence (looked up): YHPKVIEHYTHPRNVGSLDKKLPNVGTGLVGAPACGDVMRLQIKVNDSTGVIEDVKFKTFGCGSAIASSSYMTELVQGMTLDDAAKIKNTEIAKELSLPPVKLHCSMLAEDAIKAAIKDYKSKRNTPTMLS
Assay: other fluorescence titration

binding result: binds
B1: Yfh1 (yeast frataxin), wild type, mature form (amino acids 52-174), holo form (natural protein, S. cerevisiae (yeast), UniProt Q07540 52-174, looked up)
chain: VESSTDGQVVPQEVLNLPLEKYHEEADDYLDHLLDSLEELSEAHPDCIPDVELSHGVMTLEIPAFGTYVINKQPPNKQIWLASPLSGPNRFDLLNGEWVSLRNGTKLTDILTEEVEKAISKSQ
